Literature values as cited in publication PMC8961861.
pKd: −log10 of the molar value.

Target: Drebrin 1-300 (Homo sapiens) (UniProt Q16643)
Experiment: NMR

Sequence of UniProt Q16643 (Q16643 1-300): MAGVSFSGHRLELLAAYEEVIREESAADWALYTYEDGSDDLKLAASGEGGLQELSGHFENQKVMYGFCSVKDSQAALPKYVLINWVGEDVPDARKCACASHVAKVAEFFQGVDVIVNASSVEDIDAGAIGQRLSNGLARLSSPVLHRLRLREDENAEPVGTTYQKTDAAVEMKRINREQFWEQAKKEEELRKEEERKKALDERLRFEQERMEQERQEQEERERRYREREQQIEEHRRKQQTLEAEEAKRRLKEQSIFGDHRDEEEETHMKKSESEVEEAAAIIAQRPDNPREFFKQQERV

- pKd: 3.52
Substance: Cx43CT 236-382 (from UniProt P08050)
